Test results taken from paper PMC6488583.

Experiments:
[1] = target: full-length human fibronectin (UniProt P02751); assay: SPR; Biacore T200; FN amine-coupled to a CM5 chip (1000 RU and 5000 RU); α^UpaB 0.8–100 µM injected; 25 °C, PBS-T (PBS pH 7.4, 0.05% Tween 20); steady-state affinity model; apparent
[2] = target: full-length human fibronectin (UniProt P02751); assay: ELISA; settings: parent: est. 0.29; read off a plot

Sequence of full-length human fibronectin (P02751 32-2477): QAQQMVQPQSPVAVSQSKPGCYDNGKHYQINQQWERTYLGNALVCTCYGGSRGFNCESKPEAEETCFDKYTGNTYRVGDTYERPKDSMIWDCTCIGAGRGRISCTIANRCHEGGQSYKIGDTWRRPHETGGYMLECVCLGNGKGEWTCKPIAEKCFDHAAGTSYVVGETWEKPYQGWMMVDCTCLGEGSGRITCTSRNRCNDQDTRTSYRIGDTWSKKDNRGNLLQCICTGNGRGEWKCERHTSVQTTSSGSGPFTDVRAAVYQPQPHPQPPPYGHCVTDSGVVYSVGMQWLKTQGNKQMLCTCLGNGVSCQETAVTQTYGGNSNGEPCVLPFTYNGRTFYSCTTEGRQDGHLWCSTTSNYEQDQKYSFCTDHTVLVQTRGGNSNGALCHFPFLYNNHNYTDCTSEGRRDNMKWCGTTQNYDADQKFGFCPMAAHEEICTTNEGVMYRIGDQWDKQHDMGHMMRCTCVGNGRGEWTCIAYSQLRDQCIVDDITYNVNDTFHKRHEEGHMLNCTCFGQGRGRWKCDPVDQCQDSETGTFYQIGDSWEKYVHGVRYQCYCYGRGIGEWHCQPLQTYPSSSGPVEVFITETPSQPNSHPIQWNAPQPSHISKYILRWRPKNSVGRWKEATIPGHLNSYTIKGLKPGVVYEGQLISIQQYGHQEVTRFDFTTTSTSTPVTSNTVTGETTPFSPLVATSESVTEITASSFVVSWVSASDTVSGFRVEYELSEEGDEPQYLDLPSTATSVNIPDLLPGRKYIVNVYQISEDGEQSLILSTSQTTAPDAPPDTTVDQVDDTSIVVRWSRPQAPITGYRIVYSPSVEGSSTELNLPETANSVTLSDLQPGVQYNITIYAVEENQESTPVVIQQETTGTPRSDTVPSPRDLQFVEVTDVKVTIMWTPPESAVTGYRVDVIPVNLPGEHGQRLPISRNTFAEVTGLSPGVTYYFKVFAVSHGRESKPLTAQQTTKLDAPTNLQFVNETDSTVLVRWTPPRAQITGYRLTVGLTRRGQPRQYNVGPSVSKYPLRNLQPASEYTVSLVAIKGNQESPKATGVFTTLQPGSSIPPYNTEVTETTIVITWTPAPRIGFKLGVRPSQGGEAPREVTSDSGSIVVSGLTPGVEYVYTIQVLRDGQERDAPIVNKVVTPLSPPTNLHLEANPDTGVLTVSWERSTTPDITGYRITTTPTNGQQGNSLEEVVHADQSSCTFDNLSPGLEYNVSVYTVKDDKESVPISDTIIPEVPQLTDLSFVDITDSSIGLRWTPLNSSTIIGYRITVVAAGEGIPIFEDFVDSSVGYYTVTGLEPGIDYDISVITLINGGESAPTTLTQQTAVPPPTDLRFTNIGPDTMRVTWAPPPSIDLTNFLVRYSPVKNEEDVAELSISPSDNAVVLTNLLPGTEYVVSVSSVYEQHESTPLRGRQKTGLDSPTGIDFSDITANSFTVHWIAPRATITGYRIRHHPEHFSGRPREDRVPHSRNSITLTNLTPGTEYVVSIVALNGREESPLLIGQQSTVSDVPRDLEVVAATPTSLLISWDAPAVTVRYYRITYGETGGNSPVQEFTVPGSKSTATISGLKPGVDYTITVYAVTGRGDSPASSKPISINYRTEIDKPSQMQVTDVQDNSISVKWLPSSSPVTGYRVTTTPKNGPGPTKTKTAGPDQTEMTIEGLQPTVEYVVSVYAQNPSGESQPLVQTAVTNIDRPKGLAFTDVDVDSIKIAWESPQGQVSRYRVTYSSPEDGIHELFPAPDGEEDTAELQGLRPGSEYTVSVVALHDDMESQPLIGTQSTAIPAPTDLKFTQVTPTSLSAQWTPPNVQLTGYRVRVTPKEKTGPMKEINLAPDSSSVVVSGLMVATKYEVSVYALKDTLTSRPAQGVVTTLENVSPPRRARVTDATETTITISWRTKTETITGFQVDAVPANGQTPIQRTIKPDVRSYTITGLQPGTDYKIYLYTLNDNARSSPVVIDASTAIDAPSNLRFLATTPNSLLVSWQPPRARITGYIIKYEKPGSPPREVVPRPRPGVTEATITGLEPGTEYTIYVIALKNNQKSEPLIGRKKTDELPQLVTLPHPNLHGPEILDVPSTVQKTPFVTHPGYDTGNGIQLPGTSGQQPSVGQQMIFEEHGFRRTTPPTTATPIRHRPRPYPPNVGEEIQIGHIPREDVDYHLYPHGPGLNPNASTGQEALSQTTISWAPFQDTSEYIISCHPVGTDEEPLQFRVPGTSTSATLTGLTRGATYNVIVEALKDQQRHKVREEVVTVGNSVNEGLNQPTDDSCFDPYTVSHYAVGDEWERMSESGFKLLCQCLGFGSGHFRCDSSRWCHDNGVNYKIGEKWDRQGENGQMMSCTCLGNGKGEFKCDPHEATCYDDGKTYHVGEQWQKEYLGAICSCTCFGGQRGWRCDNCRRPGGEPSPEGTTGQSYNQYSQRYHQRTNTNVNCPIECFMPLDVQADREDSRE

| Substance | Kd [1] | response (Absorbance at 405 nm) [2] |
| --- | --- | --- |
| UpaB α-domain (α^UpaB), residues 38–500, from UPEC CFT073 (domain or fragment; other documents disagree on this pair) | 45.2 µM | – |
| UpaB α-domain (α^UpaB), residues 38–500, from UPEC CFT073 E103A; D138A; E165A; E226A | – | 0.27 |
| UpaB α-domain (α^UpaB), residues 38–500, from UPEC CFT073 E165A; N189A; Q197A; N200A; Q203A; K256A; N316A | – | 0.33 |
| UpaB α-domain (α^UpaB), residues 38–500, from UPEC CFT073 F101A; Y130A; Y187A; F195A; L201G; L202G; Y260A | – | 0.21 |
| UpaB α-domain (α^UpaB), residues 38–500, from UPEC CFT073 N116A; D119A; N146A; N175A; D217A; K245A; D246A; D281A; R310A; D336A | – | 0.039 |
